Data taken from publication PMC8527181.

Legend:
[1] = target: Ptr4CL (endogenous in SDX extract, member not told); assay: cross-linking; crude SDX extract (25 mM sodium phosphate buffer, pH 7.4) cross-linked with DSP, SDS-PAGE, western blot with PtrHCT1 and PtrHCT6 specific antibodies
[2] = target: Ptr4CL3-6 × His, recombinant (Populus trichocarpa); assay: cross-linking; recombinant Ptr4CL and PtrHCT, 200 nM each in PBS, DSP at 20-fold molar excess, room temperature 5 min, SDS-PAGE, western blot with Ptr4CL3 and PtrHCT1 antibodies
[3] = target: Ptr4CL5-6 × His, recombinant (Populus trichocarpa); assay: as above

Row | stoichiometry N (PtrHCT per Ptr4CL) [1] | stoichiometry N (PtrHCT per Ptr4CL) [2] | stoichiometry N (PtrHCT per Ptr4CL) [3] | Substance
1 | 2 |  |  | PtrHCT1, endogenous in SDX protein extract (enzyme)
2 |  | 2 | 2 | PtrHCT1-6 × His, recombinant (enzyme)
3 | 2 |  |  | PtrHCT6, endogenous in SDX protein extract (enzyme)
4 |  | 2 |  | PtrHCT6-6 × His, recombinant (enzyme)
